The values that follow come from patent US20120208765.

For one series, the target named is T1, human agrinC44 y4z8.
T1 chain: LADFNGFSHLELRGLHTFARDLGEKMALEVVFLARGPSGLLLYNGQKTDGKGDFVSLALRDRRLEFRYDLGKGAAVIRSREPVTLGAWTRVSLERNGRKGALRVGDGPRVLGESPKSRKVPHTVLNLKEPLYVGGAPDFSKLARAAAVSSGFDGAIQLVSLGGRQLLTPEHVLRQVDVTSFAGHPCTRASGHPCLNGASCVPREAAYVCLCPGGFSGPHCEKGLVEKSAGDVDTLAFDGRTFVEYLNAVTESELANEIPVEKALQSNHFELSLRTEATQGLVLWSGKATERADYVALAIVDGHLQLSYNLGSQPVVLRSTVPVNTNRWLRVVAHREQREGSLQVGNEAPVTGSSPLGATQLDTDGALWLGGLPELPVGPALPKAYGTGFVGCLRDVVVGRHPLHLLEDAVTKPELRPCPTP

Series [1] concerns the target T2, neurotrypsin-resistant human agrin C44 y0z8K/A (h).
T2 chain: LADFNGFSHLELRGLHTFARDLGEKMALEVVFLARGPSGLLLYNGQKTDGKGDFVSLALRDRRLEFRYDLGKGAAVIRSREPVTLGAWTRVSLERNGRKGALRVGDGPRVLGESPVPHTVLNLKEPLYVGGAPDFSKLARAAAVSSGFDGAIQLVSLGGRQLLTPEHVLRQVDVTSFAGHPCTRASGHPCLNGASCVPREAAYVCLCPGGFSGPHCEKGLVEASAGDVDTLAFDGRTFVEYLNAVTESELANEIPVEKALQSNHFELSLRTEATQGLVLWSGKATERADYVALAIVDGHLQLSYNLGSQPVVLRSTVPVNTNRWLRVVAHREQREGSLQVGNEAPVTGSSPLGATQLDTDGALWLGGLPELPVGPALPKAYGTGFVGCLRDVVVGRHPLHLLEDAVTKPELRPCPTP

Series [2] deals with T3, neurotrypsin-resistant human agrin C44 y4z0K/A.
T3 chain: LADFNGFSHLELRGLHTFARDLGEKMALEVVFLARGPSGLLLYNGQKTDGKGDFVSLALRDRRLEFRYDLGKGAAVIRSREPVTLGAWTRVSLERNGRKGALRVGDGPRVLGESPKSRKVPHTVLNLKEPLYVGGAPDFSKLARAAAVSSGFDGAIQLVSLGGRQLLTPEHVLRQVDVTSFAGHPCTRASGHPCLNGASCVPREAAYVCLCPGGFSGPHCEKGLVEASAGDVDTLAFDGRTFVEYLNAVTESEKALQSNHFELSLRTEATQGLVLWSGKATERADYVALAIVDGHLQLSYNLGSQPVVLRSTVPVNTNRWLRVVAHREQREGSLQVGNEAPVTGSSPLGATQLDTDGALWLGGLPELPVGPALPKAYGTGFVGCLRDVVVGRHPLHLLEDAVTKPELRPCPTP

The target of series [3] is T4, neurotrypsin-resistant human agrin C44 y4z8K/A with N-terminal His8 tag (C44K/A).
T4 chain: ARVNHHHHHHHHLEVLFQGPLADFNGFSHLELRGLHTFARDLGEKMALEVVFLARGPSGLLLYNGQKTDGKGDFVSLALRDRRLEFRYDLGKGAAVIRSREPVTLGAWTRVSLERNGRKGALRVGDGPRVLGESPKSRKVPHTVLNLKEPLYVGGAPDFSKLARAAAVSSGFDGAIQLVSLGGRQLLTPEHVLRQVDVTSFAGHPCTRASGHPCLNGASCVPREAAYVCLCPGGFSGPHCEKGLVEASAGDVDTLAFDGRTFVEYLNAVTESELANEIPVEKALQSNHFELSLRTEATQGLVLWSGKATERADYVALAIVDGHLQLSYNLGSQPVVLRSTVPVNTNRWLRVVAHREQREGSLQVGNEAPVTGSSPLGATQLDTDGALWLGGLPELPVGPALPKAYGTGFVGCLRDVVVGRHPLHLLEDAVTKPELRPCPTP

Series [4] concerns the target T5, neurotrypsin-resistant mouse agrin C44 y0z8K/A (m).
T5 chain: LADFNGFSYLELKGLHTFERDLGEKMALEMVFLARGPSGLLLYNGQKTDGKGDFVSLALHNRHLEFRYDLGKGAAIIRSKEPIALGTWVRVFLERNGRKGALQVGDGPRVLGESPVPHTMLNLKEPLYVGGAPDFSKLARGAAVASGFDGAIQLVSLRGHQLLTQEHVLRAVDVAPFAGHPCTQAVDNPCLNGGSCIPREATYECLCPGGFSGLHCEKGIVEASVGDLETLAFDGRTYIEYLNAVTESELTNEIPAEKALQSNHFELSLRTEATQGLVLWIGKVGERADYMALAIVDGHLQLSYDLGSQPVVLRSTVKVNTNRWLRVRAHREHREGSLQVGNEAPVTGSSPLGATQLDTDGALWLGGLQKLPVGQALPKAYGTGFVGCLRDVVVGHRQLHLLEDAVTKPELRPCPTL

The target in series [5] is T6, neurotrypsin-resistant mouse agrin C44 y4z8K/A (m).
T6 chain: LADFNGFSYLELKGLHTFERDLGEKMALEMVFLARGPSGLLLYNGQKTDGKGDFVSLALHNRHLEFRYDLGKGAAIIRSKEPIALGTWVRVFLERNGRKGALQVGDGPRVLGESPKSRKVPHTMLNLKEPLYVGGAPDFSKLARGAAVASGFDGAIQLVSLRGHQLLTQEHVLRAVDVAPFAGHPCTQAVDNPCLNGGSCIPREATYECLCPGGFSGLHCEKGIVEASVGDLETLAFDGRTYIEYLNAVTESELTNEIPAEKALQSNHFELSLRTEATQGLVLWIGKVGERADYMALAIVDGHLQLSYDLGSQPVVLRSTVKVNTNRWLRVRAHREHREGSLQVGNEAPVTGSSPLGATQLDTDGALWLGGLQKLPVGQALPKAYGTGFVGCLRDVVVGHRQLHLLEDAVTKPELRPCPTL

B1: human neurotrypsin (protein)
chain: FDSVLNDSLHHSHRHSPPAGPHYPYYLPTQQRPPRTRPPPPLPRFPRPPRALPAQRPHALQAGHTPRPHPWGCPAGEPWVSVTDFGAPCLRWAEVPPFLERSPPASWAQLRGQRHNFCRSPDGAGRPWCFYGDARGKVDWGYCDCRHGSVRLRGGKNEFEGTVEVYASGVWGTVCSSHWDDSDASVICHQLQLGGKGIAKQTPFSGLGLIPIYWSNVRCRGDEENILLCEKDIWQGGVCPQKMAAAVTCSFSHGPTFPIIRLAGGSSVHEGRVELYHAGQWGTVCDDQWDDADAEVICRQLGLSGIAKAWHQAYFGEGSGPVMLDEVRCTGNELSIEQCPKSSWGEHNCGHKEDAGVSCTPLTDGVIRLAGGKGSHEGRLEVYYRGQWGTVCDDGWTELNTYVVCRQLGFKYGKQASANHFEESTGPIWLDDVSCSGKETRFLQCSRRQWGRHDCSHREDVSIACYPGGEGHRLSLGFPVRLMDGENKKEGRVEVFINGQWGTICDDGWTDKDAAVICRQLGYKGPARARTMAYFGEGKGPIHVDNVKCTGNERSLADCIKQDIGRHNCRHSEDAGVICDYFGKKASGNSNKESLSSVCGLRLLHRRQKRIIGGKNSLRGGWPWQVSLRLKSSHGDGRLLCGATLLSSCWVLTAAHCFKRYGNSTRSYAVRVGDYHTLVPEEFEEEIGVQQIVIHREYRPDRSDYDIALVRLQGPEEQCARFSSHVLPACLPLWRERPQKTASNCYITGWGDTGRAYSRTLQQAAIPLLPKRFCEERYKGRFTGRMLCAGNLHEHKRVDSCQGDSGGPLMCERPGESWVVYGVTSWGYGCGVKDSPGVYTKVSAFVPWIKSVTKL
Take B1: the “proteolytic digestion of the agrin fragment by human neurotrypsin, SDS-PAGE (Sypro ruby); control substrate with intact β-cleavage site, cleavage implied” value with human agrinC44 y4z8 is “The mutation K to A in the β-cleavage site efficiently abolishes a cleavage of the agrin fragment”. The “proteolytic digestion by human neurotrypsin, SDS-PAGE (FIG. 11)” value in series [1] is “the C44K/A-fragments as shown in the FIGS. 2b and 7-10 are not digested by neurotrypsin”; in series [2], “the C44K/A-fragments as shown in the FIGS. 2b and 7-10 are not digested by neurotrypsin”; in series [3], “the C44K/A-fragments as shown in the FIGS. 2b and 7-10 are not digested by neurotrypsin”; in series [4], “the C44K/A-fragments as shown in the FIGS. 2b and 7-10 are not digested by neurotrypsin”; in series [5], “the C44K/A-fragments as shown in the FIGS. 2b and 7-10 are not digested by neurotrypsin”. The “proteolytic digestion of the agrin fragment by human neurotrypsin, SDS-PAGE (Sypro ruby)” value in series [3] is given as “The mutation K to A in the β-cleavage site efficiently abolishes a cleavage of the agrin fragment”.
